Earlier results as cited in paper PMC10968392.

Target: SARS-CoV-2 spike protein (cited Kd) (SARS-CoV-2) (UniProt P0DTC2)
Assay: not stated here (previous study)
Settings: PBSMCT: DPBS, 1 mM MgCl2, 1 mM CaCl2, 0.025% Tween-20; 25 °C, 1 h; pH not stated

GAACATTGGCGTCCGTGAGCAGCTCGTGGTTGTTTGCTTGTATACTTTTGTGGTTTATCTTGTTTCTGATCACTTCCTCAAACGCCCAA [SpS1-C4 aptamer]
Kd: 1.81 nM

GAACATTGGCGTCCGTGAGTGAGACCATAGTCCAGCGAACTAAACCTACCCTAAAGGGCAAGGAAGACGGGCACTTCCTCAAACGCCCAA [SpS1-C1 aptamer]
Kd: 1.47 nM
